Test results: patent publication US20240376151A1, “STAPLED PEPTIDES AND METHODS THEREOF” (FOG PHARMACEUTICALS, INC., priority 2022, published 2024)
Numbered stars: 1 amine (or outer) side, 2 acyl side, 3 side chain; on linkers, the order of the positions; unused ones are H or OH. Bridge positions count the residues as written; N and C are the ends. Ends that are not written are not given here. Phenylene(1,4-NHCOCH2)2 = O=C(C[*:1])Nc1ccc(NC(=O)C[*:2])cc1

Biological target: T1, CHIP (Homo sapiens, UniProt Q9UNE7)
T1 construct: N-term truncated CHIP (also known as STUB1, Uniprot ID: Q9UNE7, residues 23-303); made in house; host or cells: E. coli BL21 CodonPlus
T1 sequence (Q9UNE7 23-303): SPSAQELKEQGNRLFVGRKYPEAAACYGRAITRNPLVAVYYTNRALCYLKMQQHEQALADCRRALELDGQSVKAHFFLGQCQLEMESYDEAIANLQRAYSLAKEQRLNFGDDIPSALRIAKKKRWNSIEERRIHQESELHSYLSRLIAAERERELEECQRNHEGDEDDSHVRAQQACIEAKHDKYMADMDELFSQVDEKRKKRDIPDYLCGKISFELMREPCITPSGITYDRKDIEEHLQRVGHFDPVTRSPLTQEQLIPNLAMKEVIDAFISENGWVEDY
Test: Naive Library Presenter Screening (phage, NGS), CHIP
Format: binding
Settings: CHIP clusters (C83, C84); for interaction data, BLANK: Blank = Media only; for interaction data at Target Concentration 10: target concentration 10 nM; for interaction data at Target Concentration 30: target concentration 30 nM; for interaction data at Target Concentration 100: target concentration 100 nM; for interaction data at Target Concentration 300: target concentration 300 nM; for interaction data at Target Concentration 1000: target concentration 1000 nM
Experimental: To conduct phage library screening, previously described procedures were utilized in accordance with the present disclosure.
Next-generation sequencing was performed as described in accordance with the present disclosure.
Hit ID and Clustering is performed according to a described procedure in accordance with the present disclosure.

Sequence	interaction data, BLANK (first column)	interaction data, BLANK (second column)	interaction data at Target Concentration 10	interaction data at Target Concentration 30	interaction data at Target Concentration 100	interaction data at Target Concentration 300	interaction data at Target Concentration 1000 (first column)	interaction data at Target Concentration 1000 (second column)
DPAEYACYHAASICNVD (linker 7-14 via Phenylene(1,4-NHCOCH2)2 (inferred))	0	0	0	0	54	61	31	91
DPAFDACQFAAAMCDHQ (linker 7-14 via Phenylene(1,4-NHCOCH2)2 (inferred))	0	0	0	30	23	39	80	248
DPAFDRCQWAAALCMMN (linker 7-14 via Phenylene(1,4-NHCOCH2)2 (inferred))	0	0	0	0	4	13	31	76
DPAFEQCQFAAAMCLHH (linker 7-14 via Phenylene(1,4-NHCOCH2)2 (inferred))	0	0	0	6	1	17	42	21
DPAFERCQLAAAFCYDS (linker 7-14 via Phenylene(1,4-NHCOCH2)2 (inferred))	0	0	0	0	2	15	60	47
DPAFEVCQFAAATCSSN (linker 7-14 via Phenylene(1,4-NHCOCH2)2 (inferred))	0	0	0	0	8	10	6	30
DPAFEYCQWAAATCQMD (linker 7-14 via Phenylene(1,4-NHCOCH2)2 (inferred))	0	0	0	12	0	43	46	90
DPAFFECVRAASICMVD (linker 7-14 via Phenylene(1,4-NHCOCH2)2 (inferred))	0	0	0	0	0	51	41	54
DPAFTACQFAAAMCDSS (linker 7-14 via Phenylene(1,4-NHCOCH2)2 (inferred))	0	0	0	0	0	3	8	5
DPAFTRCQFAAAVCNFT (linker 7-14 via Phenylene(1,4-NHCOCH2)2 (inferred))	0	0	0	3	0	6	19	28
DPAFVRCQFAAASCHTI (linker 7-14 via Phenylene(1,4-NHCOCH2)2 (inferred))	0	0	0	0	0	22	27	19
DPAFWQCQFAAATCAHY (linker 7-14 via Phenylene(1,4-NHCOCH2)2 (inferred))	0	0	0	0	19	16	70	44
DPAFWRCQFAAATCEHT (linker 7-14 via Phenylene(1,4-NHCOCH2)2 (inferred))	1	0	2	3	210	321	597	726
DPAFWSCQFAAATCSHL (linker 7-14 via Phenylene(1,4-NHCOCH2)2 (inferred))	0	0	0	0	4	6	11	8
DPAFWVCQYAAAMCQDV (linker 7-14 via Phenylene(1,4-NHCOCH2)2 (inferred))	1	0	8	3	160	86	331	323
DPAIIWCSQAASICTVD (linker 7-14 via Phenylene(1,4-NHCOCH2)2 (inferred))	0	0	0	0	19	15	23	24
DPAINMCYRAAQICDVD (linker 7-14 via Phenylene(1,4-NHCOCH2)2 (inferred))	0	0	0	0	0	31	28	27
